Starred links: 1 amine or outer side, 2 acyl side, 3 side chain; linkers in the order of their positions; H or OH if unused. Positions of bridges follow the written chain, without caps; N, C: chain ends. Residues, ends and D or L forms follow the SMILES beside them. Primed or numbered codes have the meaning given here. No end group written: not given here. *: point of attachment. X1 = O=C(C[*:2])NCCNC(=O)c1ccc(C2=N[C@H](C(=O)[*:1])CS2)cc1; FITC = O=C1OC2(c3ccc(O)cc3Oc3cc(O)ccc32)c2ccc(NC(=S)*)cc21; c‑ADT″ = 2-aryl-4,5-dihydrothiazole linker; ADT (ClAc-3) = not defined here; c‑ADT = not defined here
Assays:
[1] = molecular target: MCL-1 (Homo sapiens, UniProt Q07820); assay: SPR binding assay, MCL-1; conditions: NB = no binding
Source text: (§1) The DNA fragments encoding human BCL-XL ([…], with […] removed), BCL-w (residues 6–152), MCL-1 (residues 152–308) and BFL-1 (residues 1–151) as previously reported[18] were cloned into a pET-22b vector (Invitrogen), respectively. A chimeric human BCL-2 (including residues 1–50 and 92–207) was constructed, by removing the internal long loop (residues 51–91) and replacing its residues 35–50 with residues 33–48 of BCL-XL to solubilize the protein[14], and then it was cloned into a pET28a-Sumo vector (Invitrogen). All BCL-2 mutants (G101V, F104L, Y103D, D111A) were generated by mutagenic PCR, according to the QuikChange (Stratagene) protocol.
(§2) SPR assays were performed using a Biacore T200 instrument in running buffer consisting 10 mM PBS, 50 μM EDTA and 0.05% Tween-20 at 25 °C. Biotinylated proteins were immobilized on a CAP sensor chip (Cytiva, 28920234). […] The binding affinities were quantified by the Biacore evaluation software using 1:1 binding model. The reproducibility of the assays was confirmed by performing replicate determinations.

[2] = molecular target: T1, BFL-1 (Homo sapiens, UniProt Q16548); assay: SPR binding assay, BFL-1; conditions: NB = no binding
T1 construct: BFL-1 (residues 1–151); vector-borne tag of pET-22b (Ni-NTA purification implies a His tag); made in house; host or cells: E. coli BL21 (DE3)
T1 sequence (Q16548 1-151): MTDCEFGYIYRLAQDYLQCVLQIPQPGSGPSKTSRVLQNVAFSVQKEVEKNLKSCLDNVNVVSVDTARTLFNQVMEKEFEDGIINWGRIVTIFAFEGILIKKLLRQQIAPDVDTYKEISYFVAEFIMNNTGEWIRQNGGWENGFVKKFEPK
Source text: as §1, §2

[3] = molecular target: T2, BCL-XL (Homo sapiens, UniProt Q07817, DEL27-81); assay: SPR binding assay, BCL-XL; conditions: affinity fitting, mean ± SD of three independent experiments, 25 °C
T2 construct: human BCL-XL (residues 1–210, with 27–81 and 210–233 removed); vector-borne tag of pET-22b (Ni-NTA purification implies a His tag); made in house; host or cells: E. coli BL21 (DE3)
Source text: as §1, §2

[4] = molecular target: T3, chimeric human BCL-2 (residues 1-50 and 92-207, residues 35-50 replaced with residues 33-48 of BCL-XL) (human, UniProt P10415 1-34; Q07817-1 33-48; P10415 92-207, biotinylated for the SPR assays (sites not given)); assay: SPR; Biacore T200; biotinylated proteins immobilised on a CAP sensor chip, peptides flowed over at 30 uL/min in multiple cycles; 10 mM PBS, 50 uM EDTA, 0.05% Tween-20, 25 °C; 1:1 binding model; conditions: both partners purified
T3 construct: BCL-2, human, residues 1-34 (residues 35-50 are replaced, see next part); BCL-XL, human, residues 33-48, replacing residues 35-50 of BCL-2; BCL-2, human, residues 92-207 (internal loop 51-91 removed); also called BCL-2 WT; source: E. coli BL21 (DE3), purified (Ni-NTA, Superdex 75, RESOURCE Q, Superdex 200)
T3 chain (looked up): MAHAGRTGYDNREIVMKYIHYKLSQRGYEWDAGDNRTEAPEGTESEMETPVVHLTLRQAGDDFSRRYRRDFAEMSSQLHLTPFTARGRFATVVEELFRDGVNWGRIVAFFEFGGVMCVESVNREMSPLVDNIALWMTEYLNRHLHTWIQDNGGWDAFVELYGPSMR

[5] = molecular target: T4, human BCL-XL (residues 1-210, with 27-81 and 210-233 removed) (human, UniProt Q07817-1 1-210, 27-81 removed, biotinylated for the SPR assays (sites not given)); assay: as above; conditions: both partners purified
T4 construct: BCL-XL, human, residues 1-210 with the loop 27-81 removed; source: E. coli BL21 (DE3), purified (Ni-NTA, Superdex 75, RESOURCE Q, Superdex 200)

[6] = molecular target: T3, chimeric human BCL-2 (residues 1-50 and …); assay: fluorescence polarisation; competition: cp2-F/BCL-2 complexes (20/400 nM) or cp3-F/BCL-XL complexes (20/600 nM) treated with unlabelled peptides from 1.0 nM to 30.0 uM; 1x PBS pH 7.4, room temperature, 10 min; Ki calculated from EC50, one-site competitive model; conditions: both partners purified
[7] = molecular target: T4, human BCL-XL (residues 1-210, with …); assay: as above; conditions: both partners purified
[8] = molecular target: T3, chimeric human BCL-2 (residues 1-50 and …); assay: fluorescence polarisation; direct binding: 20 nM FITC-labelled peptide, protein from 60 nM to 1000 nM; 1x PBS pH 7.4, room temperature, 10 min; conditions: both partners purified
[9] = molecular target: T4, human BCL-XL (residues 1-210, with …); assay: as above; conditions: both partners purified

T4 sequence (Q07817 other isoform, or with tags, fused parts or gaps 27-81 removed | 27-81 removed): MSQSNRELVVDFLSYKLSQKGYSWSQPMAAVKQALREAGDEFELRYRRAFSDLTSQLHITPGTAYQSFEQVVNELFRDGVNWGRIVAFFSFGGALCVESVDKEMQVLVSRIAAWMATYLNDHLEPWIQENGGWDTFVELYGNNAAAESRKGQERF
MCL-1, sequence (Q07820 152-308): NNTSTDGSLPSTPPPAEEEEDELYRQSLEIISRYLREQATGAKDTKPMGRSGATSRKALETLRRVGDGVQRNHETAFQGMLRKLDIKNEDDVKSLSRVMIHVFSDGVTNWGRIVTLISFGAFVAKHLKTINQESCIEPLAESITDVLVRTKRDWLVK

Molecule: CC[C@H](C)[C@@H]1NC(=O)[C@@H]2CCCN2C(=O)[C@@H]2CSC(=N2)c2ccc(cc2)C(=O)NCCNC(=O)CSC[C@@H](C(N)=O)NC(=O)[C@H](Cc2ccccc2)NC(=O)[C@H](CCC(=O)O)NC(=O)[C@H](CC(=O)O)NC(=O)[C@H](Cc2c[nH]c3ccccc23)NC(=O)[C@H](CCC(=O)O)NC(=O)[C@H](Cc2ccc(O)cc2)NC(=O)[C@H](CCCNC(=N)N)NC1=O [cp2] (PIRYEWDEFC-NH2; linker N-10 via X1)
- Kd [1]: > 12800 nM
- Kd [2]: > 12800 nM

Molecule: CC[C@H](C)[C@@H]1NC(=O)[C@@H]2CCCN2C(=O)[C@@H]2CSC(=N2)c2ccc(cc2)C(=O)NCCNC(=O)CSC[C@@H](C(N)=O)NC(=O)[C@H](CCC(=O)O)NC(=O)[C@H](C(C)C)NC(=O)[C@H](CC(=O)O)NC(=O)[C@H](Cc2c[nH]c3ccccc23)NC(=O)[C@@H]2CCCN2C(=O)[C@H](Cc2ccc(O)cc2)NC(=O)[C@H](CCCNC(=N)N)NC1=O [cp3] (PIRYPWDVEC-NH2; linker N-10 via X1)
- Kd [1]: > 12800 nM
- Kd [2]: > 12800 nM

Molecule: C[C@@H]1NC(=O)[C@@H]2CCCN2C(=O)[C@@H]2CSC(=N2)c2ccc(cc2)C(=O)NCCNC(=O)CSC[C@@H](C(=O)NCC(=O)N[C@@H](CO)C(=O)NCC(=O)N[C@@H](CO)C(=O)N[C@@H](CCCNC(=N)N)C(=O)N[C@@H](CCCCN)C(=O)N[C@@H](CCCCN)C(=O)N[C@@H](CCCNC(=N)N)C(=O)N[C@@H](CCCNC(=N)N)C(=O)N[C@@H](CCC(N)=O)C(=O)N[C@@H](CCCNC(=N)N)C(=O)N[C@@H](CCCNC(=N)N)C(=O)N[C@@H](CCCNC(=N)N)C(=O)N[C@@H](CCC(=O)O)C(=O)N[C@@H](CCC(=O)O)C(=O)N[C@@H](CCC(=O)O)C(=O)N[C@@H](CCC(=O)O)C(=O)N[C@@H](CCC(=O)O)C(=O)N[C@@H](CCC(=O)O)C(=O)N[C@@H](CCC(=O)O)C(=O)N[C@@H](CCC(=O)O)C(N)=O)NC(=O)[C@H](CCC(=O)O)NC(=O)[C@H](Cc2ccc(O)cc2)NC(=O)[C@H](CC(=O)O)NC(=O)[C@H](Cc2c[nH]c3ccccc23)NC(=O)CNC(=O)[C@H](Cc2ccc(O)cc2)NC(=O)[C@H](CCCNC(=N)N)NC1=O [cp1-TAT-8E] (PARYGWDYECGSGSRKKRRQRRREEEEEEEE-NH2; linker N-10 via X1)
- Kd [3]: 1170 ± 70 nM

Molecule: CPIRYEWDEFCGSGSRKKRRQRRREEEEEEEE (linker 1-11 via c‑ADT; reading uncertain, source: synthetic peptide) [cp2-TAT-8E]
- Kd [4]: 140 ± 50 nM
- Kd [5]: 130 ± 9 nM

Molecule: CPIRYPWDVECGSGSRKKRRQRRREEEEEEEE (linker 1-11 via c‑ADT; reading uncertain, source: synthetic peptide) [cp3-TAT-8E]
- Kd [4]: 70 ± 10 nM
- Kd [5]: 20 ± 1 nM

B1: cp3 (peptide)
peptide: CPIRYPWDVEC-NH2
modifications: linker 1-11 via c‑ADT″
notes: cyclic peptide from the CPXRYXWDXXC phage library screened against BCL-XL; source: synthetic peptide
- Ki [6]: 152 nM
- Ki [7]: 333 nM

B2: cp2 (peptide)
peptide: CPIRYEWDEFC-NH2
modifications: linker 1-11 via c‑ADT″
notes: cyclic peptide from the CPXRYXWDXXC phage library screened against BCL-2; source: synthetic peptide
- Ki [6]: 22.5 nM
- Ki [7]: 682 nM

B3: cp2-F (peptide)
peptide: CPIRYEWDEFCGK(FITC)
modifications: linker 1-11 via ADT (ClAc-3) (inferred); reading uncertain; also: modified by ClAc-3, printed as CPIRYEWDEFCG{K(FITC)}
notes: also called cp2-FITC; source: synthetic peptide
- Kd [8]: 97.2 nM
- Kd [9]: 810 nM

B4: cp3-F (peptide)
peptide: CPIRYPWDVECGK(FITC)
modifications: linker 1-11 via ADT (ClAc-3) (inferred); reading uncertain; also: modified by ClAc-3, printed as CPIRYPWDVECG{K(FITC)}
notes: also called cp3-FITC; source: synthetic peptide
- Kd [8]: 177 nM
- Kd [9]: 270 nM
